{"source": "paper PMC7317968", "about": "“A GM1b/asialo‐GM1 oligosaccharide‐binding R‐type lectin from purplish bifurcate mussels Mytilisepta virgata and its effect on MAP kinases” (The Febs Journal, 2019)", "proteins": {"B1": {"name": "Mytilisepta virgata R-type lectin SeviL (natural protein, UniProt A0A646QV53 1-129, looked up)", "chain": "MSSVTIGKCYIQNRENGGRAFYNLGRKDLGIFTGKMYDDQIWSFQKSDTPGYYTIGRESKFLQYNGEQVIMSDIEQDTTLWSLEEVPEDKGFYRLLNKVHKAYLDYNGGDLVANKHQTESEKWILFKAY", "notes": "SeviL (variant SeviL-1), R-type (ricin B-type) lectin of Mytilisepta virgata, 129 amino acids, 15 kDa; Native protein isolated from tissue; also called SeviL-1; mytvir1; source: purified from Mytilisepta virgata mantles and gills (lactosyl-agarose column, eluted with 50 mM lactose)"}}, "biological_target": "the molecule itself", "experiment": "AUC; sedimentation velocity, sample about 1.0 mg/mL, 50 mM potassium phosphate pH 7.4, 0.1 M NaCl, 293 K, c(s) analysis in SEDFIT converted to c(M); native mass 30 kDa"}
{"protein": "B1", "values": [{"measurement": "stoichiometry N", "result": 2}]}
